Article PMC6352652, “Targeting early changes in the synovial microenvironment: a new class of immunomodulatory therapy?” (Annals of the Rheumatic Diseases, 2018)

Columns and labels:
[1] = target: T1, FBG domain of rat tenascin-C (Rattus norvegicus, UniProt A0A8I6AG89); test: SPR; at 37°C; C3 on human and rat FBG; who was immobilised not stated
T1 construct: tenascin-C, rat, fibrinogen-like globe (FBG) domain; Printed only as 'rat antigen'; construct in the supplementary methods; also called rat antigen

[2] = target: T2, fibrinogen-like globe (FBG) domain of human tenascin-C (human, UniProt P24821); test: as above
T2 construct: tenascin-C, human, fibrinogen-like globe (FBG) domain at the C-terminus; contact residues are numbered A2115 to H2175; the constructs used for SPR, the crystal and the solid phase assay may differ; also called human FBG; recombinant human tenascin-C FBG; source: recombinant

[3] = target: T2, fibrinogen-like globe (FBG) domain of …; test: ELISA; solid phase binding assay: recombinant human TLR4 coated onto a 96-well plate; recombinant human FBG preincubated with C3 or isotype control antibody was added; bound FBG detected; conditions: both partners purified

T2 sequence (P24821 1975-2201): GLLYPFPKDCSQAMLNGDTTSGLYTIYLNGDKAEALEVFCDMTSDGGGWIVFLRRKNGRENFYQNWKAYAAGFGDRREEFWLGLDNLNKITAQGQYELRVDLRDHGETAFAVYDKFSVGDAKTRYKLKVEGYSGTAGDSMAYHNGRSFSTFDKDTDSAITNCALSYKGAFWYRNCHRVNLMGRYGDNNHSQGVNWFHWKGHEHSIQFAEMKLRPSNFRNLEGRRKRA

- Kd [1]: 1.2 nM
- Kd [2]: 0.07 nM
- IC50 [3]: 45.6 nM
B1: monoclonal antibody C3 (antibody, V domains shown)
VH: QVQLVESGGGLVQPGRSLRLSCAASGFTFDDYAMHWVRQAPGKGLEWVSGISGSGGSTYYADSVKGRFTISRDNAKNSLYLQMNSLRAEDTALYYCAKSYQSDEDAFDIWGQGTMVTVSS
VL: DIQMTQSPASLPTPVGDRVTITCRASQYIQGFLNWYQQKPGKAPKLLIYDASNLETGVPSRFSGSGSGTDFTLTISSLQPEDFATYYCQQSYSTPQTFGQGTKVDIK
notes: variable part as the heavy chain of m2 (crystal structure solved here, Fab chain B); as the light chain of m2 (crystal structure solved here, Fab chain C); in the solid phase and cell assays it is compared with an isotype control antibody; also called clone C3
